Measured values taken from the supplement of paper PMC10201428.
± gives the standard deviation of the averaged measurements.

B1: library; a variant is named by its letters at N, in order (parent)
chain: ACATTTGTTGATACAACCATAAAATGATAATTACACCCATAAATTGATAATTATCACACCCANNNNNNNNNNNNNNCTCTGATCATAGTCAGACCAACATTGCTACGACCCGTATTCGCACCGACAC

Columns and labels:
[1] = variants of: B1; experiment: relative integration efficiency (T-RL orientation) vs wild-type transposon end (log2 (normalized fold change)); transposon end mutated: right end (5 bp flank + 75 bp right end); higher = more efficient transposition; details: with VchCAST RNA-guided transposition machinery (E. coli BL21(DE3) host, lacZ target)
Method: (§1)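 Pooled, barcoded VchCAST (Tn6677) mini-transposon donor libraries; each variable transposon-end sequence sits in a fixed pDonor mini-transposon context (10-bp barcode and cargo not included). Left- or right-end libraries were co-transformed with pEffector (TniQ-Cascade, TnsABC, lacZ crRNA, T7, 0.1 mM IPTG) into E. coli BL21(DE3) and grown 18 h at 37 C. T-LR and T-RL junction amplicons were sequenced; output/input barcode fold change was normalised to the mean of four wild-type barcodes and log2-transformed. Two biological replicates; zero-count/undetected variants carry floor values (-10 / -15), censored here. Barcode uncoupling by PCR recombination adds noise.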

[2] = variants of: B1; experiment: relative integration efficiency (T-LR orientation) vs wild-type transposon end (log2 (normalized fold change)); transposon end mutated: right end (5 bp flank + 75 bp right end); higher = more efficient transposition; details: with VchCAST RNA-guided transposition machinery (E. coli BL21(DE3) host, lacZ target)
Method: as §1

Row | Variant | relative integration efficiency (log2) [1] | relative integration efficiency (log2) [2]
1 | TAAATTGATATTGC A13T | 0.116 ± 0.008 | 0.0619 ± 0.48
2 | TAAATTGATATTGC A13C | -0.236 ± 0.083 | -0.613 ± 0.75
3 | TAAATTGATATTGC A42G | -0.807 ± 0.11 | -1.01 ± 0.016
4 | TAAATTGATATTGC A42T | 0.0512 ± 0.029 | -0.0993 ± 0.22
5 | TAAATTGATATTGC C2G | 0.0801 ± 0.019 | 0.363 ± 0.28
6 | TAAATTGATATTGC A11T | 0.176 ± 0.055 | -0.678 ± 0.051
7 | TAAATTGATATTGC A11C | 0.342 ± 0.021 | -0.681 ± 0.56
8 | TAAATTGATATTGC A11G | -0.0551 ± 0.029 | -0.5 ± 0.17
9 | ATTTAACTATAACG A39G | -0.496 ± 0.057 | 2.47 ± 0.042
10 | ATTTAACTATAACG A39C | -2.44 ± 0.36 | 0.461 ± 0.1
11 | TAACGTGATATTGC | -0.0871 ± 0.004 | 0.67 ± 0.2
12 | TAAATTGATATTGC T12C | -0.235 ± 0.019 | -0.906 ± 0.64
13 | ATTTAACTATAACG A27C | -1.49 ± 0.28 | 1.82 ± 0.022
14 | TAAATTGATATTGC C37T | -0.229 ± 0.057 | -0.304 ± 0.57
15 | ATTTAACTATAACG A47C | -0.686 ± 0.38 | 2.63 ± 0.064
16 | TAAATTGATATTGC C60T | -0.182 ± 0.028 | 0.2 ± 0.2
17 | TAAATTGATATTGC C60G | 0.0119 ± 0.012 | 0.315 ± 0.03
18 | ATTTAACTATAACG A13T | -1.09 ± 0.14 | 1.84 ± 0.15
19 | ATTTAACTATAACG A13C | -0.7 ± 0.17 | 2.25 ± 0.23

Row | Variant | relative integration efficiency (log2) [1] | relative integration efficiency (log2) [2]
20 | TAAATTGATATTGC C36T | -0.172 ± 0.077 | -0.179 ± 0.053
21 | TAAATTGATATTGC C36G | -0.469 ± 0.0075 | -0.695 ± 0.23
22 | TAAATTGAGCGGGC | -0.15 ± 0.012 | 2.13 ± 0.086
23 | ATTTAACTATAACG C38A | -1.04 ± 0.17 | 2.02 ± 0.11
24 | ATTTAACTATAACG C38G | -0.843 ± 0.15 | 2.06 ± 0.035
25 | ATTTAACTATAACG C38T | -0.901 ± 0.15 | 2.05 ± 0.13
26 | ATTTAACTATAACG A56C | -1.09 ± 0.21 | 2.32 ± 0.19
27 | TAAATTGATATTGC C14G | -0.477 ± 0.036 | -1.2 ± 0.21
28 | TAAATTGATATTGC C14A | -0.119 ± 0.027 | -0.254 ± 0.16
29 | TAAATTGATATTGC C14T | -0.00853 ± 0.13 | 0.0199 ± 0.32
30 | TAAATTGAATTTGC | -0.179 ± 0.17 | 1.16 ± 0.42
31 | ATTTAACTATAACG T52G | -1.31 ± 0.41 | 2.29 ± 0.27
32 | ATTTAACTATAACG T52A | -1.26 ± 0.2 | 2.3 ± 0.12
33 | TAAATTGATATTGC A53G | -0.385 ± 0.25 | -0.269 ± 0.048
34 | ATTTAACTATAACG T20G | -2 ± 0.4 | 0.721 ± 0.045
35 | ATTTAACTATAACG T20A | -1.07 ± 0.11 | 2.04 ± 0.098
36 | TAAATTGATATTGC T9C | 0.234 ± 0.012 | 0.331 ± 0.42
37 | TAAATTGATATTGC T9A | -0.0594 ± 0.085 | -0.234 ± 0.3
38 | TAAATTCATATTGC | -0.149 ± 0.23 | 2.62 ± 0.096

Row | Variant | relative integration efficiency (log2) [1] | relative integration efficiency (log2) [2]
39 | TAAATTGATATTGC A33C | 0.00253 ± 0.071 | 0.14 ± 0.18
40 | TAAATTGATATTGC T4A | -0.153 ± 0.014 | -0.113 ± 0.32
41 | TAAATTGATATTGC T4G | -0.1742 ± 0.00091 | 0.405 ± 0.34
42 | TAAATTGATATTGC T28A | -0.215 ± 0.21 | 0.152 ± 0.12
43 | TAAATTGATATTGC T28C | -0.278 ± 0.096 | -0.203 ± 0.2
44 | TAATTTGATATTGC | 0.169 ± 0.039 | 0.241 ± 0.14
45 | ATTTAACTATAACG T9A | -0.86 ± 0.087 | 2.15 ± 0.18
46 | ATTTAACTATAACG T9G | -0.534 ± 0.082 | 2.39 ± 0.12
47 | TAAATTGATATTGC C79G | -0.0645 ± 0.0099 | -0.196 ± 0.19
48 | TAAATTGATATTGC T51C | 0.0252 ± 0.18 | 0.0609 ± 0.14
49 | TAAATTGATATTGC T51A | -0.455 ± 0.07 | -0.206 ± 0.1
50 | TAAATTGATATTGC T8G | -5.89 ± 0.83 | -3.6 ± 0.47
51 | TAAATTGATATTGC T8C | -0.808 ± 0.29 | -2.19 ± 0.042
52 | ATTTAACTATAACG A30T | 0.406 ± 0.54 | 4.401 ± 0.043
53 | ATTTAACTATAACG A30G | -1.51 ± 0.13 | 2.11 ± 0.26
54 | ATTTAACTATAACG C61G | -0.633 ± 0.14 | 2.57 ± 0.16
55 | ATTTAACTATAACG C18A | -0.906 ± 0.082 | 2.01 ± 0.13
56 | TAAATTGATATTGC T52C | -0.34 ± 0.15 | -0.286 ± 0.39
